From patent US20030031667A1 (CELLDEX RESEARCH, published 2003) come the findings set out here.

For assay [1], the target named is T1, human macrophage mannose receptor (human, UniProt P22897 19-1456).
T1 construct: whole, on cells; In the immunoprecipitations it came from cell lysates; also called human B11 antigen; B11 target antigen
T1 sequence (looked up): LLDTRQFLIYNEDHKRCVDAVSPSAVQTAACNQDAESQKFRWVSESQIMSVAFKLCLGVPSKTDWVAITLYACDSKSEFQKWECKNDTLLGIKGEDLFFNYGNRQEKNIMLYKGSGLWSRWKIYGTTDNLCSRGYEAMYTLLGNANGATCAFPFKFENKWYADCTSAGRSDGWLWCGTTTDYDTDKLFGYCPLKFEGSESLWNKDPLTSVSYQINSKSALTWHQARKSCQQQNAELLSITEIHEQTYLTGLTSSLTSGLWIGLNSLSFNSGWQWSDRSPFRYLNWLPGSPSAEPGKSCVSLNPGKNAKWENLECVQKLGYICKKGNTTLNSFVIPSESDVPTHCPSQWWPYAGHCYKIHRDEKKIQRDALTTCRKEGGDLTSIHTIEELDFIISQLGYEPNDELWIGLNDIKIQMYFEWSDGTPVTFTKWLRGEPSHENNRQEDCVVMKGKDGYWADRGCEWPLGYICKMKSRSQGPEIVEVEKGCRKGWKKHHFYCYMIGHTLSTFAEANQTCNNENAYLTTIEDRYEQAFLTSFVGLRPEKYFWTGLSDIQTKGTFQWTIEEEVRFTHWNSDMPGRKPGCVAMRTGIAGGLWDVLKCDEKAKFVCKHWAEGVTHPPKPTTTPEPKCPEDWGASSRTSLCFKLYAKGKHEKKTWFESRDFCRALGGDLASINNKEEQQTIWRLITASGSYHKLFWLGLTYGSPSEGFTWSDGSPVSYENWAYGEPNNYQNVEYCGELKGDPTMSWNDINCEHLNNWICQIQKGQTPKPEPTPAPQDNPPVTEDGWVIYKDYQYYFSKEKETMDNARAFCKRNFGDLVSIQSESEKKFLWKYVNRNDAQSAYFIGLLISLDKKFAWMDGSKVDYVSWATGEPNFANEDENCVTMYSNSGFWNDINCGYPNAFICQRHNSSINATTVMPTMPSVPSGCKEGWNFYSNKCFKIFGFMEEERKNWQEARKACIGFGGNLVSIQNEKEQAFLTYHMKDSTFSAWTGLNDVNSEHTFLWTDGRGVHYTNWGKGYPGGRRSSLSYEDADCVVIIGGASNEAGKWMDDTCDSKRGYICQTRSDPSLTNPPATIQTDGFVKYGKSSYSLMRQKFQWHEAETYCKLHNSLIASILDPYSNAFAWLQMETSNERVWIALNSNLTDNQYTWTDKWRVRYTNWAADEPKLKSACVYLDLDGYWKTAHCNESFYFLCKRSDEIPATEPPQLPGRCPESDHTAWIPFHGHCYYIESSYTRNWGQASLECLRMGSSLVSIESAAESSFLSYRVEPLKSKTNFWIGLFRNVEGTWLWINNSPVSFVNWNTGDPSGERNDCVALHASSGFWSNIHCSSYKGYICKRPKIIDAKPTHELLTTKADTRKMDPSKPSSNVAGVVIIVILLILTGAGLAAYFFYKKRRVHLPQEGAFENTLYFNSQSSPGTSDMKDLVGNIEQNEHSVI
Put plainly: flow cytometry, hybridoma supernatant on monocyte-derived human dendritic cells. Here is the method: The hybridomas secreting human IgG were tested for reactivity with various types of blood cells by flow cytometry. Dendritic cells were prepared from adherent mononuclear cells by culturing for 5-7 days in media supplemented with GM-CSF and IL-4. Granulocytes (PMN), monocytes and lymphocytes were obtained from heparanized whole blood. The cells were incubated with hybridoma supernatants from IgG-positive clones at 4° C. Binding was detected with a FITC-labeled goat anti-human IgG(Fc) probe. The cell associated fluorescence was determined by analysis using a FACScalibur instrument.

The target of assay [2] is T1, human macrophage mannose receptor. The experiment in a line: flow cytometry on monocyte-derived dendritic cells, anti-human IgG-F(ab')2-PE probe. The method, then:
The reactivity of F(ab′)2 fragments of human monoclonal antibody B11 with dendritic cells from human tissues was evaluated by flow cytometry.
F(ab′)2 fragments were prepared by digestion of purified B11 mAb with pepsin under standard conditions. The F(ab′)2 fragments were purified by protein L chromatography. Dendritic cells, prepared fresh from human monocytes by culture in GM-CSF and IL-4, were incubated with whole antibody or F(ab′)2 antibody fragments for 1 hour at 4° C. The cells were washed before incubation with anti-human IgG-F(ab′)2-PE probe for 1 hour at 4° C. The cells were washed again prior to analysis using a FACScalibur instrument and Cellquest software.
For orientation: A flow cytometer gives signals particle by particle.

B1: human monoclonal antibody B11 (antibody, human IgG1, V domains shown)
VH: EVQLVQSGAEVKKPGESLRISCKGSGDSFTTYWIGWVRQMPGKGLEWMGIIYPGDSDTIYSPSFQGQVTISADKSISTAYLQWSSLKASDTAMYYCTRGDRGVDYWGQGTLVTVSS
VL: DIQMTQSPSSLSASVGDRVTITCRASQGISRWLAWYQQKPEKAPKSLIYAASSLQSGVPSRFSGSGSGTDFTLTISGLQPEDFATYYCQQYNSYPRTFGQGTKVEIK
notes: Human IgG1 kappa from a HuMAb mouse hybridoma; also called B11 HuMab; mAb B11
As to B1, in assay [1], the binding result is given as “binds”.

B2: F(ab')2 fragments of human monoclonal antibody B11 (other)
VH: B1 VH
VL: B1 VL
notes: See the note of m1 on the VH/VL conflict; also called B11 F(ab')2
In the case of B2, in assay [2], the binding result is listed as “binds”.
